Tests used:
[1] = biological target: PD-1 and LAG-3 on CD4+ and CD8+ cells of patients' peripheral blood; test: receptor occupancy by flow cytometry on patients' whole blood, CD4+ cells; Emax model of % binding against DART-I concentration
[2] = biological target: PD-1 and LAG-3 on CD4+ and CD8+ cells of patients' peripheral blood; test: receptor occupancy by flow cytometry on patients' whole blood, CD8+ cells; Emax model of % binding against DART-I concentration
[3] = biological target: PD-1 and LAG-3 on CD4+ and CD8+ cells of patients' peripheral blood; test: receptor occupancy by flow cytometry on patients' whole blood, CD8+ cells; Emax model
[4] = biological target: PD-1 and LAG-3 on CD4+ and CD8+ cells of patients' peripheral blood; test: receptor occupancy by flow cytometry on patients' whole blood, CD4+ cells; Emax model

EC50 [1]: 0.045 µg/mL | EC50 [2]: 0.011 µg/mL | concentration at which 90% of max RO is achieved [3]: 0.1 µg/mL | concentration at which 90% of max RO is achieved [4]: 0.6 µg/mL
B1: DART-I (bispecific antibody, human IgG4 S228P)
chain 1: DIQMTQSPSSLSASVGDRVTITCRASQDVSSVVAWYQQKPGKAPKLLIYSASYRYTGVPSRFSGSGSGTDFTLTISSLQPEDFATYYCQQHYSTPWTFGGGTKLEIKGGGSGGGGQVQLVQSGAEVKKPGASVKVSCKASGYSFTSYWMNWVRQAPGQGLEWIGVIHPSDSETWLDQKFKDRVTITVDKSTSTAYMELSSLRSEDTAVYYCAREHYGTSPFAYWGQGTLVTVSSGGCGGGEVAACEKEVAALEKEVAALEKEVAALEKESKYGPPCPPCPAPEFLGGPSVFLFPPKPKDTLYITREPEVTCVVVDVSQEDPEVQFNWYVDGVEVHNAKTKPREEQFNSTYRVVSVLTVLHQDWLNGKEYKCKVSNKGLPSSIEKTISKAKGQPREPQVYTLPPSQEEMTKNQVSLTCLVKGFYPSDIAVEWESNGQPENNYKTTPPVLDSDGSFFLYSRLTVDKSRWQEGNVFSCSVMHEALHNHYTQKSLSLSLG
chain 2: EIVLTQSPATLSLSPGERATLSCRASESVDNYGMSFMNWFQQKPGQPPKLLIHAASNQGSGVPSRFSGSGSGTDFTLTISSLEPEDFAVYFCQQSKEVPYTFGGGTKVEIKGGGSGGGGQVQLVQSGAEVKKPGASVKVSCKASGYTFTDYNMDWVRQAPGQGLEWMGDINPDNGVTIYNQKFEGRVTMTTDTSTSTAYMELRSLRSDDTAVYYCAREADYFYFDYWGQGTTLTVSSGGCGGGKVAACKEKVAALKEKVAALKEKVAALKE

— patent publication US20230056230A1
